Experimental data taken from patent US20200399355A1 (University of California, published 2020).
Square brackets hold non-standard residues; d marks the D form. Ends that are not written are not given here. Cit = NC(=O)NCCC[C@H](N)C(=O)O

T1: Human CV peptide 60-75 (biotinylated citrullinated vimentin peptide) (human, also: biotinylated, position not given here)
T1 construct: Captured through biotin on streptavidin (ELISA plate or SPR chip); also called human citrullinated vimentin
T1 peptide: VYAT[Cit]SSAV[Cit]L[Cit]SSVP

T2: Murine CV peptide 60-75 (biotinylated citrullinated vimentin peptide) (murine, also: biotinylated, position not given here)
T2 construct: Captured through biotin on streptavidin in ELISA; also called murine citrullinated vimentin
T2 peptide: AYVT[Cit]SSAV[Cit]L[Cit]SSVP


Legend:
[1] = molecular target: biotinylated CV peptide (Innovagen), CV60-75, on streptavidin; experiment: flow cytometry of transduced Tregs stained with biotinylated-CV-peptide/streptavidin-FITC tetramer (y axis, 'CAR+ cells') and EGFRt antibody (x axis)
[2] = molecular target: biotinylated CV peptide (Innovagen), CV60-75, on streptavidin; experiment: flow cytometry of transduced Tregs stained with biotinylated-CV-peptide/streptavidin-FITC tetramer (y axis, 'CAR+ cells') and EGFRt antibody (x axis); number printed under the right half of the panel, taken as the lower right quadrant
[3] = molecular target: T1, Human CV peptide 60-75 (biotinylated …); experiment: SPR (Biacore T100), biotinylated CV peptide on streptavidin-coated sensor chip, scFv injected from 400nM down to 12.5nM; fit table under the sensorgrams, column KD (M)
Description: (§1) Assessment of the binding specificity and affinity of BVCA1 antibodies and scFv to CV peptide: The binding specificity of BVCA1 IgG and scFv were assessed by ELISA. 96-well ELISA plates were coated 0/N at 4° C. with 50 μl Streptavidin at 10m/ml. Wells were washed three times and blocked with 2000 of 1×PBS 1% BSA for 1 h at RT and washed again. 1000 of biotinylated peptides at 10 ug/ml diluted in PBS 1% BSA were added and incubated for 1 h at RT. Wells were then washed three times. 1000 of BVCA1 IgG or scFv or isotype control were added at various concentrations (serial dilution). […] Reaction was stopped with 50 11.1 of NaOH 3M after 15 to 30 min and absorbance was read in a microplate reader at 405 nm. Kinetics and affinities of BVCA1 Ig and scFv to CV peptide were analyzed by surface plasmon resonance using Biacore T100 (GE healthcare). […]

[4] = molecular target: T1, Human CV peptide 60-75 (biotinylated …); experiment: SPR (Biacore T100), biotinylated CV peptide on streptavidin-coated sensor chip, scFv injected from 400nM down to 12.5nM; fit table under the sensorgrams, column kd (1/s)
Description: as §1

[5] = molecular target: T1, Human CV peptide 60-75 (biotinylated …); experiment: ELISA, biotinylated peptide on streptavidin-coated plate, scFv detected with anti-c-Myc 9E10 and anti-mouse IgG-AP, absorbance 405 nm
Description: as §1

[6] = molecular target: T2, Murine CV peptide 60-75 (biotinylated …); experiment: as above
Description: as §1

[7] = molecular target: T1, Human CV peptide 60-75 (biotinylated …); experiment: SPR (Biacore T100), biotinylated CV peptide on streptavidin-coated sensor chip, scFv injected from 400nM down to 12.5nM; fit table under the sensorgrams, column ka (1/Ms)
Description: as §1

[8] = molecular target: T1, Human CV peptide 60-75 (biotinylated …); experiment: SPR (Biacore T100), biotinylated CV peptide immobilised on streptavidin-coated chip, scFv injected
Description: as §1

| % of cells CVpep-SA-FITC+ EGFRt+ (upper right quadrant) [1] | % of cells CVpep-SA-FITC+ EGFRt- (upper left quadrant) [1] | % of cells CVpep-SA-FITC- EGFRt+ (lower right quadrant; the number stands below the panel) [2] | % of cells CVpep-SA-FITC- EGFRt+ (lower right quadrant) [1] | Molecule | other results |
| --- | --- | --- | --- | --- | --- |
| 1.5% | 0.1% | 72.9% | – | CD19.28z-CAR on human Tregs | – |
| 0.5% | – | 63.4% | – | CD19.41BBz-CAR on human Tregs | – |
| 47.5% | 0.6% | – | 20.7% | CV.28z-CAR (Anti-CV CAR-CD28z) on human Tregs (protein) EVKLIESGGGLVEPGRSLRLACTTSGFTFADYGLSWFRQGPGKGLEWVGFTGPKHLGETTECAPSVEDRCTISRDDSKSTVYLQMHRLQHEDTAVYFCVGPWFGDLLMWGQGTLVTVSSASSGGSTSGSGKPGSGEGSSGSARAIQMTQSPSSLSASVGDRVSITCRATQDISTSLGWYHQRPGKAPRLLIYGASKVQTGVPSRFSGNGSGTEFTLTISSLQPEDIGTYYCLQDDGFPFTVGQGTKLDIKRAAAIEVMYPPPYLDNEKSNGTIIHVKGKHLCPSPLFPGPSKPFWVLVVVGGVLACYSLLVTVAFIIFWVRSKRSRLLHSDYMNMTPRRPGPTRKHYQPYAPPRDFAAYRSRVKFSRSADAPAYQQGQNQLYNELNLGRREEYDVLDKRRGRDPEMGGKPRRKNPQEGLYNELQKDKMAEAYSEIGMKGERRRGKGHDGLYQGLSTATKDTYDALHMQALPPR | – |
| – | – | – | – | BVCA1 scFv (soluble CV-specific scFv, VH-linker-VL) (scFv, Produced in E. coli periplasm; also called anti-CV scFv; single-chain variable fragment (scFv) synthesized from BVCA1 antibody; not shown: tags of the pSYN-expressed protein (detected with anti-c-Myc 9E10, purified on Ni-NTA)) scFv: EVKLIESGGGLVEPGRSLRLACTTSGFTFADYGLSWFRQGPGKGLEWVGFTGPKHLGETTECAPSVEDRCTISRDDSKSTVYLQMHRLQHEDTAVYFCVGPWFGDLLMWGQGTLVTVSSASSGGSTSGSGKPGSGEGSSGSARAIQMTQSPSSLSASVGDRVSITCRATQDISTSLGWYHQRPGKAPRLLIYGASKVQTGVPSRFSGNGSGTEFTLTISSLQPEDIGTYYCLQDDGFPFTVGQGTKLDIKRAAA | Kd [3]: 198 nM; koff [4]: 0.00377 s⁻¹; EC50 (read off the curve) [5]: ~2 ng/mL; EC50 (read off the curve) [6]: ~2 ng/mL; kon [7]: 19000 M⁻¹ s⁻¹; Kd [8]: 198 nM |
| 55.4% | 0.6% | – | 18.9% | CV.41BBz-CAR (Anti-CV CAR-41BBz) on human Tregs (protein) EVKLIESGGGLVEPGRSLRLACTTSGFTFADYGLSWFRQGPGKGLEWVGFTGPKHLGETTECAPSVEDRCTISRDDSKSTVYLQMHRLQHEDTAVYFCVGPWFGDLLMWGQGTLVTVSSASSGGSTSGSGKPGSGEGSSGSARAIQMTQSPSSLSASVGDRVSITCRATQDISTSLGWYHQRPGKAPRLLIYGASKVQTGVPSRFSGNGSGTEFTLTISSLQPEDIGTYYCLQDDGFPFTVGQGTKLDIKRAAAIEVMYPPPYLDNEKSNGTIIHVKGKHLCPSPLFPGPSKPFWVLVVVGGVLACYSLLVTVAFIIFWVKRGRKKLLYIFKQPFMRPVQTTQEEDGCSCRFPEEEEGGCELRVKFSRSADAPAYQQGQNQLYNELNLGRREEYDVLDKRRGRDPEMGGKPRRKNPQEGLYNELQKDKMAEAYSEIGMKGERRRGKGHDGLYQGLSTATKDTYDALHMQALPPR | – |
